Reference: PMC12408340 (Nature, 2025)

Experiments:
[1] = molecular target: FCoV-23 S domain B (receptor-binding domain, RBD), residues 529-677 (FCoV-23 (feline coronavirus)); assay: BLI; […]; global 1:1 fit; […]
[2] = molecular target: T1, CCoV-HuPn-2018 S domain B (receptor-binding domain, RBD), residues 523-671 (CCoV-HuPn-2018 (canine coronavirus)); assay: BLI
T1 chain: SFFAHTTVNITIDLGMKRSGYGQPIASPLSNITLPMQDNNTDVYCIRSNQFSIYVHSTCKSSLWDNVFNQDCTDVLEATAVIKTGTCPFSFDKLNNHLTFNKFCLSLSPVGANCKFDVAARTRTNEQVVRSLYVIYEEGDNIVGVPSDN

[3] = molecular target: the molecule itself; assay: cryo-EM structure

## Canis lupus familiaris APN ectodomain fused to a human Fc fragment (CfAPN-Fc) (from UniProt P79143 71-975) (Fc fusion)
[1]
  Kd: 1.3 nM

## Felis catus APN ectodomain fused to a human Fc fragment (FcAPN-Fc) (from UniProt P79171 64-967) (Fc fusion)
[1]
  Kd: 11 nM

B1: Felis catus APN ectodomain fused to a human Fc fragment (FcAPN-Fc) (Fc fusion)
chain: DQSKPWNVYRLPKTLIPDSYNVTLRPYLTPNNKGLYVFTGTNIVRFTCKESTNIVIIHSKRLNYTSHQGHMVALSGVGGFHPQPVIVRTELVELTEYLVVHLQEPLVAGRQYEMNSEFQGELADDLAGFYRSEYMENGVKKVLATTHMQATEARKSFPCFDEPAMKATFNITIIHPNNLVALSNMLPRGPSVPFGEDPTWKVTEFETTPIMSTYLLAYIVSEFSYVETRAPSGVLIRIWARPSAINQGHGDYALKVTGPILDFFSQHYDTPYPLNKSDQIALPDFNAGAMENWGLVTYRESALLYDRQSSSSGNQERVVTVIAHELAHQWFGNLVTLEWWNDLWLNEGFASYVEYLGADFAEPTWNLKDLMVLNDVYRVMAVDALASSHPLSTPASEINTPAQISEVFDSISYSKGASVLRMLSNFLTEDLFKMGIASYLHTYKYGNTIYLNLWEHLQQVVDKQPTIKLPDTVSAIMDRWILQMGFPVITVDTQTGTISQQHFLLDPQSVVTRPSQFNYLWIVPISSVRSGSPQAHYWLPGVEKAQNDLFKTTANDWVLLNLNVTGYYLVNYDNENWKKIQTQLQTDLSVIPVINRAQVIHDAFNLASAQKVPVTLALNNTLFLIQETEYMPWQAALSSLSYFKLMFDRSEVYGPMKRYLKKQVTPLFNHFERVTKNWTDHPQTLMDQYSEINAVSTACSYGVPECEKLAATLFAQWKKNPQNNPIHPNLRSTVYCNAIAQGGEEEWNFVWEQFLKAELVNEADKLRGALACSNQVWILNRFLSYTLDPNLIRKQDVTSTLSSISSNVVGQTLVWDFVQSNWKKLFQDYGTGSFSFSNLIQAVTRRFSTEFELQQLEQFKKNNMDTGFGSATRALEQALEKTKANLKWVKENKDVVLRWFTENS
[2]
  Kd: 28 nM

B2: Felis catus APN ectodomain dimer without the Fc fusion (FcAPN) (domain or fragment)
chain: B1 chain
[3]
  stoichiometry N: 2

B3: Canis lupus familiaris APN ectodomain fused to a human Fc fragment (CfAPN-Fc) (Fc fusion)
chain: LAQSKPWNHYRLPKTLIPSSYNVTLRPYLTPNSNGLYTFKGSSTVRFTCKESTSMIIIHSKKLNYTNIQGQRVALRGVGGSQAPAIDRTELVEVTEYLVVHLREPLQVNSQYEMDSKFEGELADDLAGFYRSEYTENGVKKVLATTQMQAADARKSFPCFDEPAMKATFNITLIHPSNLVALSNMLPRGPSVPFTEEPNWNVTEFETTPIMSTYLLAYIVSEFKNVQENTPSNVLIRIWARPSAMDQGHGNYALRVTGPILDFFSRHYDTPYPLNKSDQIALPDFNAGAMENWGLVTYRESALLYDPQSSSIGNKERVVTVIAHELAHQWFGNLVTLEWWNDLWLNEGFASYVEYLGADYAEPTWNLKDLIVLNEVYRVMAVDALASSHPLSSPASEVNTPAQISEVFDSISYSKGASVLRMLSSFLTEDLFKKGVASYLHTFAYQNTIYLDLWNHLQWALGNQTAINLPYTVNAIMDRWILQMGFPVVTVDTTTGTLSQKHFLLDPQSNVTRPSKFNYLWIIPISSVKSGTQQAHYWMPDNAKVQNDLFKTTGDEWVLLNLNVTGYYLVNYDQNNWKKIHTQLQTDLSVIPVINRAQVIHDTFDLASAQIVPVTLALNSTLFLNQETEYMPWEAALSSLSYFKLMFDRSEVYGPMKNYLRKQVTPLFNHFEKITQNWTDHPQTLTEQYNEINAVSTACTYGVPKCKDLVSTLFAEWRKNPQNNPIYPNLRSTVYCNAIAQGGEEEWNFVWEQFRNTSLVNEADKLRSALACSTQVWILNRYLSYTLNPEFIRKQDVISTLSSIASNVIGQSLAWDFIQSNWKKLFEDYGTGSFSFSNLIQAVTRRFSTEFELQQLEQFKANNMDTGFGSGTRALEQALEKTKANIKWVKENKEAVLQWFRENSQ
[2]
  Kd: 2.6 nM
